# Values of other authors, collected in publication PMC6535718 (Journal of the American Chemical Society, 2019).
# B1: Bfd: bacterioferritin-associated ferredoxin, cognate partner of BfrB in P. aeruginosa (protein, UniProt Q9HY80 1-73, looked up)
# Bacterioferritin-associated …: MYVCLCQGVTDNQIRDAIYEGCCSYREVREATGVGTQCGKCACLAKQVVRETLNDLQSAQPVPAFGTTAFVAA
# Target: BfrB
# Conditions: read-out: Kd of Bfd binding to BfrB; complex in solution
molecule,measurement,value
B1,Kd,~3 µM
